Reference: the supplement of paper PMC9170038

System: MS2 coat protein
Test: apparent KD of MS2 coat protein; designed switch direction (-1 OFF switch, 1 ON switch): -1; higher = weaker reporter binding
Procedure, shortened: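 Designed RNA switches with common flanks were transcribed on Illumina chips by stalled E. coli RNA polymerase and titrated with SNAP-549-labelled MS2 coat protein, from 0.7 or 1.5 nM doubling to 3 µM, in Tris-HCl pH 7.5 buffer with KCl, MgCl2, BSA, DTT, tRNA and Tween-20. Steps lasted 0.8–1.5 h (lowest) to 10–20 min (highest). Titrations ran without input, with 200 uM small-molecule ligand, or with an oligonucleotide input. Normalised cluster fluorescence was curve-fitted, and apparent KD is the per-design median over clusters.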

[1] = Eterna round: R95, input ligand: FMN 200 uM
[2] = Eterna round: R95, input ligand: microRNA oligo, concentration not stated
[3] = Eterna round: R95, input ligand: none
[4] = input ligand: microRNA oligo, concentration not stated

GGUACUAACACGAGAGUGUUAGUACUAUAAGCUUGUGUUACAUGAGGAUCACCCAUGUCCUCAUAAGCUCGUCUUAU [Mat - Sensor v3 - Turn-off var 2 - D76] (puzzle: Sensor v3, turn-off variant 2)
apparent KD of MS2 coat protein [1]: 137 nM | apparent KD of MS2 coat protein [2]: 89.6 nM | apparent KD of MS2 coat protein [3]: 156 nM

CUGAGCAGACGGAGAUCCAACAUGAGGAUCACCCAUGUCUCAAAAGCUUUUUGCUCGUCUUAUCCUCCUCUGCUCUC [Orgeain] (puzzle: Sensor v3, turn-off variant 1)
apparent KD of MS2 coat protein [1]: 14.8 nM | apparent KD of MS2 coat protein [2]: 31.6 nM | apparent KD of MS2 coat protein [3]: 14.1 nM

ACAAGCUCUGUGGGUGGUGACAUGAGGAUCACCCAUGUUUUGCUCGUCUUGUCCCGGGCCCGGCGCCCGGGCCCGGG [-40.4, -69.3, A 12%] (Eterna round: R97, puzzle: Sensor, turn-off variant 1)
apparent KD of MS2 coat protein (input ligand: FMN 200 uM): 625 nM | apparent KD of MS2 coat protein (input ligand: none): 1340 nM

CCGGCAUGAGGAUAUCCAUCUGGAUCAGACUAGAUCCUGAUGGAGAAGGCACAUGAGGAUCACCCAUGUUACGG [Eli 4x 4.38] (Eterna round: R97, puzzle: Exclusion 4)
apparent KD of MS2 coat protein (input ligand: FMN 200 uM): 51.2 nM | apparent KD of MS2 coat protein (input ligand: none): 173 nM

GUAAUUAAUGUAGGAUAUGCAAGGCGAACCUAAGCAGAAGGACAUGUGGAUCACCCAUGUAAUGCGGUCUGCGUACAGAUCGCU [salish99_ex1_NG1_002] (Eterna round: R96, puzzle: Exclusion NG 1)
apparent KD of MS2 coat protein (input ligand: FMN 200 uM): 507 nM | apparent KD of MS2 coat protein [4]: 103 nM | apparent KD of MS2 coat protein (input ligand: none): 60.2 nM

UCCUCACCCAAGGAUAUCUGAGUCGGAACUAGCAGAGAAGGUGGCACAUGAGGAUCACCCAUGUAGACCAAUGC [Eternabot (L2) Solution 9] (Eterna round: R97, puzzle: Exclusion 6)
apparent KD of MS2 coat protein (input ligand: FMN 200 uM): 7.87 nM | apparent KD of MS2 coat protein (input ligand: none): 7.73 nM

CAGUACUGAGGAUAUACAUGAGGAUCACCCAUGUGGAGAGGAAAAGGAAGAAAAGAAGGUAGAAGGCGGUGCUG [JR_Ex3_Sub042] (Eterna round: R97, puzzle: Exclusion 3)
apparent KD of MS2 coat protein (input ligand: FMN 200 uM): 196 nM | apparent KD of MS2 coat protein (input ligand: none): 40.8 nM

GGUGGGCUAGGAUAUGCUUUGGGCGGGCAUUCCUUCGAUAAACUUGAGGAUCACCCAAGUAGAAGGAGCUUGCC [salish99_ex2_r4_024] (Eterna round: R97, puzzle: Exclusion 2)
apparent KD of MS2 coat protein (input ligand: FMN 200 uM): 16.2 nM | apparent KD of MS2 coat protein (input ligand: none): 12.3 nM

CUAGUCCGAGGAUAUAUUAAGUGAUACAUGAGGAUCACCCAUGUUAUUUAAUGGAUGUUAAUAGAAGGCGGACUAG [Mat - Exclusion 5 - JL mod - D76] (puzzle: Exclusion 5)
apparent KD of MS2 coat protein [1]: 55 nM | apparent KD of MS2 coat protein [2]: 37.7 nM | apparent KD of MS2 coat protein [3]: 77.8 nM

ACAUUGAAUGUGAGGAUAUCGAUGUGAUGGGUUGUCGAGAAGGCACAUGAGGAUCACCCAUGUGGGAUGUAGCA [JR_BMEx4_Sub033] (Eterna round: R97, puzzle: Brourd's mod of Exclusion 4)
apparent KD of MS2 coat protein (input ligand: FMN 200 uM): 349 nM | apparent KD of MS2 coat protein (input ligand: none): 91.2 nM

ACAUGAGGAUCACCCAUGUAAUGAAGGGUACUAUAUUAAACGUAGGAUAUCGAUGUAAGUUUGUUCGAGAAGGACGAUUGCCUU [JR_ExcNG3_Sub053] (Eterna round: R96, puzzle: Exclusion NG 3)
apparent KD of MS2 coat protein (input ligand: FMN 200 uM): 28.1 nM | apparent KD of MS2 coat protein [4]: 38.6 nM | apparent KD of MS2 coat protein (input ligand: none): 75.8 nM

CUUUCGUGAGGAUAUGUGGCUUCGAAAAUGAGAUCGAGGCUACAGAAGGCACAUGAGGAUCACCCAUGUUCCUC [salish99_ex4_r4_215] (Eterna round: R97, puzzle: Exclusion 4)
apparent KD of MS2 coat protein (input ligand: FMN 200 uM): 400 nM | apparent KD of MS2 coat protein (input ligand: none): 35.6 nM

UUACAAUGUCGCUUAUAAGCUUUUUGCUCGUCUUAUAUUACAUGAGGAUCACCCAUGUAGAUCAUGUGGCGUGACCU [JL ViennaUCT Maridi mod 8] (puzzle: Sensor v3, turn-off variant 2)
apparent KD of MS2 coat protein [1]: 264 nM | apparent KD of MS2 coat protein [2]: 47.9 nM | apparent KD of MS2 coat protein [3]: 345 nM

UGUACUAUGCGAGCUGACUUGCGUAGUGCAGCAGGUGUAACAUGAGGAUCACCCAUGUCCUCAUUUGCUCGUCUUAA [Mat - Sensor v3 - Turn-off var 2 - D10] (puzzle: Sensor v3, turn-off variant 2)
apparent KD of MS2 coat protein [1]: 458 nM | apparent KD of MS2 coat protein [2]: 196 nM | apparent KD of MS2 coat protein [3]: 388 nM

AGGGAUAAAGGAUAUACAUGAGGAUCACCCAUGUUGAGGAAAGUGAGAGGUGGCGAUAGUAGAAGGUUAGGUAG [JR_Exclu3_Sub082] (puzzle: Exclusion 3)
apparent KD of MS2 coat protein [1]: 86.8 nM | apparent KD of MS2 coat protein [2]: 78.8 nM | apparent KD of MS2 coat protein [3]: 137 nM

UCCUUACAUGAGGAUCACCCAUGUCAGGAUAUCUCCUCACUGCGCUUGCGCAGUGAAUAGAGAAGGGACGGGCU [JL ViennaUCT Aner mod 8] (puzzle: Exclusion 1)
apparent KD of MS2 coat protein [1]: 36.6 nM | apparent KD of MS2 coat protein [2]: 32.4 nM | apparent KD of MS2 coat protein [3]: 40.1 nM

AAACCCUGAGGAUAUACAUAACAACAAAUCCUCACGUGCCAACAUGAGGAUCACCCAUGUAGAAGGCAGGCCCA [Bigegedi] (puzzle: Exclusion 2)
apparent KD of MS2 coat protein [1]: 48.4 nM | apparent KD of MS2 coat protein [2]: 15.8 nM | apparent KD of MS2 coat protein [3]: 15.3 nM

UCUGGUCGAGGAUAUAUAUGACGUGCUUCGGCACGAAGGUCACAUGAGGAUCACCCAUGUAGAAGGCGACCAGA [E2/9-A3] (Eterna round: R97, puzzle: Exclusion 2)
apparent KD of MS2 coat protein (input ligand: FMN 200 uM): 375 nM | apparent KD of MS2 coat protein (input ligand: none): 52.1 nM

UAUUAACAAGCAAGAUCCUACAUGAGGAUCACCCAUGUGCUCGUCUUAUAAGGUACUGUGACGAAAGUCACGGUACC [Sensor 3, v1 - 70] (puzzle: Sensor v3, turn-off variant 1)
apparent KD of MS2 coat protein [1]: 294 nM | apparent KD of MS2 coat protein [2]: 42.9 nM | apparent KD of MS2 coat protein [3]: 251 nM

CUUCGGGCAGGAUAUGCUGUUUGUGACAUGAGGAUCACCCAUGUGAUGCAGUUUGGGUGUGCAGAAGGGCCUGAGU [JR_E5_Sub031] (puzzle: Exclusion 5)
apparent KD of MS2 coat protein [2]: 43.7 nM

AAUAAUCGGGCCUUCCUAAUACAUGAGGAUCACCCAUGUCUCGAGGAUAUACCAACGCACGGUCCGUAGAAGGCGAGACCACAC [Vesoonso] (Eterna round: R96, puzzle: Exclusion NG 3)
apparent KD of MS2 coat protein (input ligand: FMN 200 uM): 24.2 nM | apparent KD of MS2 coat protein [4]: 13.2 nM | apparent KD of MS2 coat protein (input ligand: none): 21.9 nM

GCUAUGGGAGGAUAUACAUGAGGAUCACCCAUGUGUAGAGCAUACGCGCGCAUUAACAGUAGAAGGCCCUGCGU [Eternabot (L1) Solution 23] (Eterna round: R97, puzzle: Exclusion 3)
apparent KD of MS2 coat protein (input ligand: FMN 200 uM): 50.7 nM | apparent KD of MS2 coat protein (input ligand: none): 49.4 nM

GCAAGCUUUUUCAAUAAGAACAUGAGGAUCACCCAUGUUUAAGGUAUUACUUUUGGGCUCUUUAGUGCUAGUCUUAU [JR_STOV1_Sub036] (Eterna round: R97, puzzle: Sensor, turn-off variant 1)
apparent KD of MS2 coat protein (input ligand: FMN 200 uM): 45.9 nM | apparent KD of MS2 coat protein (input ligand: none): 45.5 nM

CUUGCACGACGAGGAUAUCGUAAACAUGAGGAUCACCCAUGUAGGUGGCGUCGUCCUCUAUCUUGCGAGAAGGCGUAAAAUUAA [Begeeda] (Eterna round: R96, puzzle: Exclusion NG 2)
apparent KD of MS2 coat protein (input ligand: FMN 200 uM): 82.6 nM | apparent KD of MS2 coat protein [4]: 47.1 nM | apparent KD of MS2 coat protein (input ligand: none): 39.4 nM

UUCCUCGUUGUGAGGAUAUCGUCCGUGUUUUGUUACGAGAAGGCACAUGAGGAUCACCCAUGUUACUUGAUGUU [JR_BMOE4_Sub073] (puzzle: Brourd's mod of Exclusion 4)
apparent KD of MS2 coat protein [2]: 18.9 nM

UCAUGUCCUGAGGAUAUCAAAGUCCUCCCGACAUGAGAAGGCAGGACAUGAGGAUCACCCAUGUGGAGCAGGGA [Sorareardi] (Eterna round: R97, puzzle: Exclusion 6)
apparent KD of MS2 coat protein (input ligand: FMN 200 uM): 10.3 nM | apparent KD of MS2 coat protein (input ligand: none): 353 nM

UGUUGUCGCGCAGGAUAUGAGGAUCACCCAUAUACAGGAUAUGAAAAGAAGGGUCUGAGGAUUACCCAGAAGGGCGGGACAACU [pwkr exNG2 2xF5 2xFMN.26] (Eterna round: R96, puzzle: Exclusion NG 2)
apparent KD of MS2 coat protein (input ligand: FMN 200 uM): 386 nM | apparent KD of MS2 coat protein [4]: 59.1 nM | apparent KD of MS2 coat protein (input ligand: none): 88 nM

UAUUAAACAAGCAGGUCCCACAUGAGGAUCACCCAUGUGCUCGUCUUAUAAGGUACUGUGACGAAAGUCACGGUACC [Elimod 16 - Jieux - Sensor, turn-off variant 1] (Eterna round: R97, puzzle: Sensor, turn-off variant 1)
apparent KD of MS2 coat protein (input ligand: FMN 200 uM): 37.2 nM | apparent KD of MS2 coat protein (input ligand: none): 40.1 nM

GGAGGACGAGCAGGAUAUUUUCACAUGAGGAUCACCCAUGUGUACUCAGGGUAAUCCUCCGCCGAAAAGAAGGGUUCGGAAGAA [JL ViennaUCT Socedi mod 1] (Eterna round: R96, puzzle: Exclusion NG 2)
apparent KD of MS2 coat protein (input ligand: FMN 200 uM): 46.7 nM | apparent KD of MS2 coat protein [4]: 33.2 nM | apparent KD of MS2 coat protein (input ligand: none): 50.8 nM

GCCCGGGCAGGAUAUACAAUGAAGUUGAGAAAUCGGCUUCGACAUGAGGAUCACCCAUGUAGAAGGGCCCGGGC [-36.9, -34.6 kcal, A 28% 3] (Eterna round: R97, puzzle: Exclusion 2)
apparent KD of MS2 coat protein (input ligand: FMN 200 uM): 17.6 nM | apparent KD of MS2 coat protein (input ligand: none): 14.6 nM

UUAAAUCAUGUAGGAUAUGCGUGGCAAAGCUAUGCAGAAGGACAUGAGGAUCACCCAUGUUCUAGCGUCUGAGAACAGAUGCUA [Mat - Exclusion NG 1 - Mod of JL - D78] (Eterna round: R96, puzzle: Exclusion NG 1)
apparent KD of MS2 coat protein (input ligand: FMN 200 uM): 566 nM | apparent KD of MS2 coat protein [4]: 24.2 nM | apparent KD of MS2 coat protein (input ligand: none): 47.7 nM

GAGUACUGAGGAUAUACAUGAGGAUCACCCAUGUGUUCCAACUAGGAAUCUAGAAUAUGUAGAAGGCAGUGCUG [salish99_ex3_r4_702] (Eterna round: R97, puzzle: Exclusion 3)
apparent KD of MS2 coat protein (input ligand: FMN 200 uM): 71.3 nM | apparent KD of MS2 coat protein (input ligand: none): 123 nM

GGGAAACAUGAGGAUCACCCAUGUCAGGAUAUCCGCUUUAAUUAAAUAAAUAAAUAAUGGAGAAGGGACAGCCC [-12.9, -10.5 kcal, 39% A] (Eterna round: R97, puzzle: Exclusion 1)
apparent KD of MS2 coat protein (input ligand: FMN 200 uM): 33.6 nM | apparent KD of MS2 coat protein (input ligand: none): 33.7 nM
